Results as given in patent US20040001835A1, “Prevention or treatment of cancer using integrin alphavbeta3 antagonists in combination with other agents” (MedImmune, Inc., priority 2002, published 2004).
Entries after “also recorded” stand apart in the source; their conditions may differ. Where two headings read alike, the source gives them in different places.

What was measured:
[1] = molecular target: T1, human β3 Mutant A (E171Q) (Homo sapiens, UniProt P05106, E197Q); assay: FACS analysis of HEK293 transfectants, human β3 containing rat residues; assay type: binding; conditions: flow cytometry
T1 construct: expressed in transfected cells; host or cells: HEK293
T1 sequence (P05106 27-788 E197Q): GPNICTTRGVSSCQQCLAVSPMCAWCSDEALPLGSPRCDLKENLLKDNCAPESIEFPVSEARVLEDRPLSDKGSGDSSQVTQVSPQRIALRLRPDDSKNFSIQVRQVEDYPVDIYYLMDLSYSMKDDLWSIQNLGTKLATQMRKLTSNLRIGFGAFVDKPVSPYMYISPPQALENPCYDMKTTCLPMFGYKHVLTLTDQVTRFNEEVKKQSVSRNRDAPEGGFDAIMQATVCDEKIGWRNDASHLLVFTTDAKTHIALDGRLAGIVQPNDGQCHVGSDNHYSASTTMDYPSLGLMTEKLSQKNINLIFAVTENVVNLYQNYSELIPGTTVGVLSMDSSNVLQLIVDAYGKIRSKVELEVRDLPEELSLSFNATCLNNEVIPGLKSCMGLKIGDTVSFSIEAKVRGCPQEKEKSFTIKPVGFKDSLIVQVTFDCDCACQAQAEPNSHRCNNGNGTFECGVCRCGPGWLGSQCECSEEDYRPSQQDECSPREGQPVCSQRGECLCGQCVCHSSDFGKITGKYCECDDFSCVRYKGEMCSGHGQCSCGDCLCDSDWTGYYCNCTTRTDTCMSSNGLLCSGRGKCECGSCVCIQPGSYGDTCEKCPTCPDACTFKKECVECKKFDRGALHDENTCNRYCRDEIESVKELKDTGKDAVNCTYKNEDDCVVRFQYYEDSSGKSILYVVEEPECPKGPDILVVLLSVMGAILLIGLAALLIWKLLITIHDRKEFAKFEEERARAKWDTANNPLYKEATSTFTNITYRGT
T1 sequence (P06756 31-889 partner limits assumed): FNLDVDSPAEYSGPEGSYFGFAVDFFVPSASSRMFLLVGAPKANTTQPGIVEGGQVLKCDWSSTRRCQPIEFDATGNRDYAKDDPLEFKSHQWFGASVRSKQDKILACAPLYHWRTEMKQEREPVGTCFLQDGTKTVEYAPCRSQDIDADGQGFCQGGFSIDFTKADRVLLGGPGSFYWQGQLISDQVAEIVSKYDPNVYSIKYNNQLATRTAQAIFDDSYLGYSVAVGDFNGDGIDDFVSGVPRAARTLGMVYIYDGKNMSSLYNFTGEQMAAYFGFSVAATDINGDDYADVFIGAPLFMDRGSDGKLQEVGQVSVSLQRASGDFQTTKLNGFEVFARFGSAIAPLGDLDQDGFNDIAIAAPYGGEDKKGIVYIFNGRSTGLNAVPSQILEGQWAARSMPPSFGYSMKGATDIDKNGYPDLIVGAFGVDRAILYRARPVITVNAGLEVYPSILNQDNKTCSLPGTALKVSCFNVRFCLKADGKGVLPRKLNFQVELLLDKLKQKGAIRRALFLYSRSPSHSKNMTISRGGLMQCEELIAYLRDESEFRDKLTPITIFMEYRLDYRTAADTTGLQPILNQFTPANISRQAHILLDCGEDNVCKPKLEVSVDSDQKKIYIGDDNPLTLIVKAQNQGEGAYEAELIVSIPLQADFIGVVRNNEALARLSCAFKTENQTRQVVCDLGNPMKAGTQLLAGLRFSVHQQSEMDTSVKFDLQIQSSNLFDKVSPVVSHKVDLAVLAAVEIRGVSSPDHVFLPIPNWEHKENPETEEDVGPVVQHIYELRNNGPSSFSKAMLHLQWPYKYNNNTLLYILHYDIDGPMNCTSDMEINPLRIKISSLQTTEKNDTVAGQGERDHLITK
T1 sequence (P06756 891-1048 partner limits assumed): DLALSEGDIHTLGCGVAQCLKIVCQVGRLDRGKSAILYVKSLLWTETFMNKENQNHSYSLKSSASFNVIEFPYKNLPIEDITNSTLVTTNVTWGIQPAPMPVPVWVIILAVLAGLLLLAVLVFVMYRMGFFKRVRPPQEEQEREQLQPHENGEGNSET
Description: (§1) FIG. 4. Binding of Integrin αvβ3 specific antibodies to human β3 containing rat residues.
(§2) Sequence comparison of residues 164 to 202 of β3 integrins from different species and design of mutations. To further characterize the binding epitope of Vitaxin®, the gene encoding β3 was cloned and sequenced from hamster cDNA. The amino acids in the region previously proposed to contain the LM609 binding epitope are shown above (dashed lines depict conserved residues). To determine which residues in the human sequence were essential for antibody binding, the amino acids shown in color were mutated to the corresponding rat residues. The resulting genes were transfected to HEK293 cells which express endogenous human αv. Resulting cell lines were analyzed by flow cytometry for antibody binding.
(§3) This protocol is used to assess the surface expression of integrins in HEK-293 cells transfected with various Integrin subunits. Primary antibodies bound to the integrins are detected by fluorochrome-conjugated secondary antibodies and analyzed by flow cytometry.
(§4) 1. Wash adherent cells twice with 5 ml of PBS.
(§5) 2. Add 1.5 ml of trypsin solution or cell dissociation solution, incubate at 37_C. foir 2 min.
(§6) 3. Add 3 ml of culture medium or FACs buffer to the plate and loosen cells from the plate by pipetting. Count cells. Resuspend cells in FACs buffer at 5×10^6 per ml.
(§7) 4. Transfer an aliquot of 5×10^5 cells (100 μl) into microfuge tubes containing 10 μg mouse IgG or human IgG. Incubate cells for 20 min at RT to block IgG receptor sites. Note: use mouse IgG for blocking when using human primary mAb; use human IgG for blocking when using mouse primary mAb.
(§8) 5. Add […] of Vitaxin®, or other primary mAb, and incubate for 20 min at RT.
(§9) 6. Wash twice with 500 μl of FACS buffer, spinning cells at 1500 rpm for 5 minutes.
(§10) 7. Add 0.5 mg of goat anti-human IgG Alexa 488, or other secondary antibodies, and incubate for 20 min at RT.
(§11) 8. Wash twice with 500 μl FACS buffer, spinning cells at 1500 rpm for 5 minutes.
(§12) 9. Resuspend in 500 μl buffer for FACS analysis.
(§13) 10. Use unstained cells for background. For negative control, use secondary antibody alone.

[2] = molecular target: T2, human β3 Mutant B (L173I E174K) (Homo sapiens, UniProt P05106, E200K/L199I); assay: as above; assay type: binding; conditions: flow cytometry
T2 construct: expressed in transfected cells; host or cells: HEK293
T2 sequence (P05106 27-788 L199I/E200K): as the sequence (P05106 27-788 E197Q) above, with Q171E, L173I, E174K counted along it
T2 sequence (P06756 31-889 partner limits assumed): as the sequence (P06756 31-889 partner limits assumed) above
T2 sequence (P06756 891-1048 partner limits assumed): as the sequence (P06756 891-1048 partner limits assumed) above
Description: as §1, §2, §3, §4, §5, §6, §7, §8, §9, §10, §11, §12, §13

[3] = molecular target: T3, human β3 Mutant ABC (E171Q L173I E174K D179T T182S) (Homo sapiens, UniProt P05106, D205T/E197Q/E200K/L199I/T208S); assay: as above; assay type: binding; conditions: flow cytometry
T3 construct: expressed in transfected cells; host or cells: HEK293
T3 sequence (P05106 27-788 E197Q/L199I/E200K/D205T/T208S): as the sequence (P05106 27-788 E197Q) above, with L173I, E174K, D179T, T182S counted along it
T3 sequence (P06756 31-889 partner limits assumed): as the sequence (P06756 31-889 partner limits assumed) above
T3 sequence (P06756 891-1048 partner limits assumed): as the sequence (P06756 891-1048 partner limits assumed) above
Description: as §1, §2, §3, §4, §5, §6, §7, §8, §9, §10, §11, §12, §13

[4] = molecular target: T4, human β3 Mutant A + C (E171Q D179T T182S) (Homo sapiens, UniProt P05106, D205T/E197Q/T208S); assay: as above; assay type: binding; conditions: flow cytometry
T4 construct: expressed in transfected cells; host or cells: HEK293
T4 sequence (P05106 27-788 E197Q/D205T/T208S): as the sequence (P05106 27-788 E197Q) above, with D179T, T182S counted along it
T4 sequence (P06756 31-889 partner limits assumed): as the sequence (P06756 31-889 partner limits assumed) above
T4 sequence (P06756 891-1048 partner limits assumed): as the sequence (P06756 891-1048 partner limits assumed) above
Description: as §1, §2, §3, §4, §5, §6, §7, §8, §9, §10, §11, §12, §13

[5] = molecular target: T5, αvβ3 expressed on placenta (placental trophoblasts) (Rattus norvegicus, UniProt Q8R2H2); assay: Immunohistochemical staining of placental trophoblasts; assay type: binding; conditions: frozen thin sections, antibody 10 μg/ml
T5 construct: from tissue; host or cells: placenta (frozen sections)
T5 sequence (Q8R2H2 26-787): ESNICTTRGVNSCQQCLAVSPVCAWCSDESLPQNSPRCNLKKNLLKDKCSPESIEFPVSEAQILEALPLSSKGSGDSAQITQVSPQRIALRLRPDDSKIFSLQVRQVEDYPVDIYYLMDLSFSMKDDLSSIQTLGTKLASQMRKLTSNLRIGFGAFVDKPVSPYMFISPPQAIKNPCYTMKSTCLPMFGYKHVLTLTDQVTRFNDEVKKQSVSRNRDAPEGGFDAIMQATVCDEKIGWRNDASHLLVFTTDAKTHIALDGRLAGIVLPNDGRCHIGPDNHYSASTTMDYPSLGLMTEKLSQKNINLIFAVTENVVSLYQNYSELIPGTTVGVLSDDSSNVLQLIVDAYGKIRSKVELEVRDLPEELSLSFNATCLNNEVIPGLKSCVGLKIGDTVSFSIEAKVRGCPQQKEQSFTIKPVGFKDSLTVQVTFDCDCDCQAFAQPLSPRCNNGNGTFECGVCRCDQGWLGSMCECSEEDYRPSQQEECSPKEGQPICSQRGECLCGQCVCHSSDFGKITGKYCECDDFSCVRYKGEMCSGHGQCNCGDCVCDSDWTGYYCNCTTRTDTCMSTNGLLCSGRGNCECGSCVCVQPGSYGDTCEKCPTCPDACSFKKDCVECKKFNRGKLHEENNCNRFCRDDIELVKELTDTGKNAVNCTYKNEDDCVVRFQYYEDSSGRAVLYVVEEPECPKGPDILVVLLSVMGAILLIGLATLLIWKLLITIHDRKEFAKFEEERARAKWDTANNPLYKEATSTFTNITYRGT
Method: (§14) Table 3. Immunohistochemical staining of placental trophoblasts. Placental tissue, a rich source of αvβ3, was collected either immediately after parturition or from freshly-sacrificed, late-term pregnant animals. Tissue fragments, approximately 1 cm^3, were frozen in OCT, and thin sections were stained with monoclonal antibodies (10 μg/ml) at Sierra Biomedical (Sparks, Nev.). Vitaxin® recognized αvβ3 expressed on human, monkey, guinea pig, hamster and rabbit placenta, while […] with human and monkey αvβ3. […] ND, not done.

[6] = molecular target: T6, αvβ3 expressed on placenta (placental trophoblasts) (Homo sapiens, UniProt P05106); assay: as above; assay type: binding; conditions: frozen thin sections, antibody 10 μg/ml
T6 construct: from tissue; host or cells: placenta (frozen sections)
T6 sequence (P05106 27-788): as the sequence (P05106 27-788 E197Q) above, with Q171E counted along it
T6 sequence (P06756 31-889 partner limits assumed): as the sequence (P06756 31-889 partner limits assumed) above
T6 sequence (P06756 891-1048 partner limits assumed): as the sequence (P06756 891-1048 partner limits assumed) above
Method: as §14

[7] = system: αvβ3 expressed on placenta (placental trophoblasts); assay: as above; assay type: binding; conditions: frozen thin sections, antibody 10 μg/ml
Method: as §14

[8] = system: hamster αvβ3; assay: 125-labeled Vitaxin binding affinities and number of binding sites on cell lines
Description: (§15) ^125-labeled Vitaxin® was used to determine binding affinities and number of binding sites for human, rabbit and hamster cell lines. The affinity of Vitaxin® for hamster αvβ3 was approximately 2-3 fold lower than human αvβ3 while its affinity for rabbit αvβ3 was about 4-10 fold lower than human αvβ3.

[9] = molecular target: T7, human αvβ3 (Homo sapiens, UniProt P05106); assay: as above; conditions: for Kd: read-out: Kp
T7 construct: endogenous in cells; host or cells: M21 melanoma, HMVEC, HUVEC
T7 sequence (P05106 27-788): as the sequence (P05106 27-788 E197Q) above, with Q171E counted along it
T7 sequence (P06756 31-889 partner limits assumed): as the sequence (P06756 31-889 partner limits assumed) above
T7 sequence (P06756 891-1048 partner limits assumed): as the sequence (P06756 891-1048 partner limits assumed) above
Description: as §15

[10] = system: Rabbit αvβ3; assay: as above; conditions: for Kd: read-out: Kp
Description: as §15

[11] = Human HUVEC primary endothelium

effect of Mutation A (Glu to Gln at position 171) on antibody binding [1]: disrupts binding
effect of Mutation B (Leu, Glu to Ile, Lys at positions 173 and 174) on antibody binding [2]: disrupt binding
Staining of Placental Trophoblasts [5]: Negative
Staining of Placental Trophoblasts [6]: recognized
Binding Sites [9, 11]: 8.1 × 10^4
Kd [9, 11]: 3.3 nM
Binding Sites ([9]; Human M21 melanoma): 1.3 × 10^5
Kd ([9]; Human M21 melanoma): 2.2 nM
B1: Vitaxin®: humanized blocking monoclonal antibody that binds Integrin αVβ3 (MEDI-522, MedImmune); humanized and optimized version of LM609 (antibody, chains of the INN, looked up, V domains shown)
VH: QVQLVESGGGVVQPGRSLRLSCAASGFTFSSYDMSWVRQAPGKGLEWVAKVSSGGGSTYYLDTVQGRFTISRDNSKNTLYLQMNSLRAEDTAVYYCARHLHGSFASWGQGTTVTVSS
VL: EIVLTQSPATLSLSPGERATLSCQASQSISNFLHWYQQRPGQAPRLLIRYRSQSISGIPARFSGSGSGTDFTLTISSLEPEDFAVYYCQQSGSWPLTFGGGTKVEIK
effect of changing all three regions (A, B and C) to rat residues on antibody binding [3]: disrupt binding; also recorded: completely eliminate binding
effect of Mutations A and C combined on antibody binding [4]: disrupts binding; also recorded: eliminated binding
Staining of Placental Trophoblasts ([7]; Cynomolgus monkey placenta): recognized
Staining of Placental Trophoblasts ([7]; Guinea pig placenta): recognized
Staining of Placental Trophoblasts ([7]; Hamster placenta): recognized
Staining of Placental Trophoblasts ([7]; Rabbit placenta): recognized
Kd ([8]; Hamster CCL-49 melanoma, read-out: Kp): 6.9 nM
affinity for hamster αvβ3, fold lower than human αvβ3 ([8]; hamster vs human cell lines): 2-3 fold
Kd ([10]; Rabbit RK1 kidney epithelium): 23 nM
Kd ([10]; Rabbit VX7 carcinoma): 8.9 nM
affinity for rabbit αvβ3, fold lower than human αvβ3 ([10]; rabbit vs human cell lines): 4-10 fold
